The values that follow come from US10613105.

This assay deals with TLR2/6 receptor expressed on NIH 3T3 TLR2/6 receptor cells (whole-cell sensor elements, printed or pipetted). The assay is described as follows: fluorescence of rhodamine-labeled pyrogen bound to printed or pipetted receptor cells on a membrane, against the control cell line and membrane; after drying, ethanol fixing or storage at 4° C.

The substance “Pam3CSK4 with rhodamine labeling (peptide)” displayed a delta of the fluorescence intensity above 3000 a.u.
